Results on 6 molecules are retold here after patent US20140087995A1 (published 2014).

The labels stand for the following.
T1: human calcitonin receptor (human, UniProt P30988 25-474)
T1 construct: whole, on cells; also called hCTR; hCT
T1 sequence (looked up): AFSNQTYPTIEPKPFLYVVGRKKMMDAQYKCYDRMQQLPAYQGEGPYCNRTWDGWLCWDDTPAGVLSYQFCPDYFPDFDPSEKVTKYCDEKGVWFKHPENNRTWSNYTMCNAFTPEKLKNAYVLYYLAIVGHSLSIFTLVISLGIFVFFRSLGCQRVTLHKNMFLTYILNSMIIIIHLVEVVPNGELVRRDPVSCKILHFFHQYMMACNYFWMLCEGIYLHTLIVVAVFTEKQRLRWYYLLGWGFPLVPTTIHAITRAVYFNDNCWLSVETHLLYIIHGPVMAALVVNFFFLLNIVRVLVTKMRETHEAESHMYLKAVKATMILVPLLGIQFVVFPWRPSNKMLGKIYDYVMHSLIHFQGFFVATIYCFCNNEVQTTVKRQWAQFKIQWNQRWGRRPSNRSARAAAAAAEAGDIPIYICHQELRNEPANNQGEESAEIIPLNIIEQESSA

B1: N^ε1-[(4S)-4-carboxy-4-(19-carboxynonadecanoylamino)butanoyl]-[His14,Arg17,Pro21,Pro27]-h-amylin (peptide)
peptide: K([γGlu-C20 diacid])CNTATCATQRLAHFLRHSSPNFGAIPSSTNVGSNTY-NH2
modifications: disulfide 2-7; N-terminus assumed
SMILES: CC[C@H](C)[C@H](NC(=O)[C@H](C)NC(=O)CNC(=O)[C@H](Cc1ccccc1)NC(=O)[C@H](CC(N)=O)NC(=O)[C@@H]1CCCN1C(=O)[C@H](CO)NC(=O)[C@H](CO)NC(=O)[C@H](Cc1c[nH]cn1)NC(=O)[C@H](CCCNC(=N)N)NC(=O)[C@H](CC(C)C)NC(=O)[C@H](Cc1ccccc1)NC(=O)[C@H](Cc1c[nH]cn1)NC(=O)[C@H](C)NC(=O)[C@H](CC(C)C)NC(=O)[C@H](CCCNC(=N)N)NC(=O)[C@H](CCC(N)=O)NC(=O)[C@@H](NC(=O)[C@H](C)NC(=O)[C@@H]1CSSC[C@H](NC(=O)[C@@H](N)CCCCNC(=O)CC[C@H](NC(=O)CCCCCCCCCCCCCCCCCCC(=O)O)C(=O)O)C(=O)N[C@@H](CC(N)=O)C(=O)N[C@@H]([C@@H](C)O)C(=O)N[C@@H](C)C(=O)N[C@@H]([C@@H](C)O)C(=O)N1)[C@@H](C)O)C(=O)N1CCC[C@H]1C(=O)N[C@@H](CO)C(=O)N[C@@H](CO)C(=O)N[C@H](C(=O)N[C@@H](CC(N)=O)C(=O)N[C@H](C(=O)NCC(=O)N[C@@H](CO)C(=O)N[C@@H](CC(N)=O)C(=O)N[C@H](C(=O)N[C@@H](Cc1ccc(O)cc1)C(N)=O)[C@@H](C)O)C(C)C)[C@@H](C)O
notes: also called compound 70
B2: N^ε1-[(4S)-4-carboxy-4-[[(4S)-4-carboxy-4-(19-carboxynonadecanoylamino)butanoyl]amino]butanoyl]-[Glu14,Arg17,Pro21,Pro27,His34,Glu35]-h-amylin (peptide)
peptide: K([γGlu-γGlu-C20 diacid])CNTATCATQRLAEFLRHSSPNFGAIPSSTNVGHETY-NH2
modifications: disulfide 2-7; N-terminus assumed
SMILES: CC[C@H](C)[C@H](NC(=O)[C@H](C)NC(=O)CNC(=O)[C@H](Cc1ccccc1)NC(=O)[C@H](CC(N)=O)NC(=O)[C@@H]1CCCN1C(=O)[C@H](CO)NC(=O)[C@H](CO)NC(=O)[C@H](Cc1c[nH]cn1)NC(=O)[C@H](CCCNC(=N)N)NC(=O)[C@H](CC(C)C)NC(=O)[C@H](Cc1ccccc1)NC(=O)[C@H](CCC(=O)O)NC(=O)[C@H](C)NC(=O)[C@H](CC(C)C)NC(=O)[C@H](CCCNC(=N)N)NC(=O)[C@H](CCC(N)=O)NC(=O)[C@@H](NC(=O)[C@H](C)NC(=O)[C@@H]1CSSC[C@H](NC(=O)[C@@H](N)CCCCNC(=O)CC[C@H](NC(=O)CC[C@H](NC(=O)CCCCCCCCCCCCCCCCCCC(=O)O)C(=O)O)C(=O)O)C(=O)N[C@@H](CC(N)=O)C(=O)N[C@@H]([C@@H](C)O)C(=O)N[C@@H](C)C(=O)N[C@@H]([C@@H](C)O)C(=O)N1)[C@@H](C)O)C(=O)N1CCC[C@H]1C(=O)N[C@@H](CO)C(=O)N[C@@H](CO)C(=O)N[C@H](C(=O)N[C@@H](CC(N)=O)C(=O)N[C@H](C(=O)NCC(=O)N[C@@H](Cc1c[nH]cn1)C(=O)N[C@@H](CCC(=O)O)C(=O)N[C@H](C(=O)N[C@@H](Cc1ccc(O)cc1)C(N)=O)[C@@H](C)O)C(C)C)[C@@H](C)O
B3: N^ε1-[(4S)-4-carboxy-4-[[(4S)-4-carboxy-4-(19-carboxynonadecanoylamino)butanoyl]amino]butanoyl]-[Glu14,Arg17,Pro21,Pro27,Arg35]-h-amylin (peptide)
peptide: K([γGlu-γGlu-C20 diacid])CNTATCATQRLAEFLRHSSPNFGAIPSSTNVGSRTY-NH2
modifications: disulfide 2-7; N-terminus assumed
SMILES: CC[C@H](C)[C@H](NC(=O)[C@H](C)NC(=O)CNC(=O)[C@H](Cc1ccccc1)NC(=O)[C@H](CC(N)=O)NC(=O)[C@@H]1CCCN1C(=O)[C@H](CO)NC(=O)[C@H](CO)NC(=O)[C@H](Cc1c[nH]cn1)NC(=O)[C@H](CCCNC(=N)N)NC(=O)[C@H](CC(C)C)NC(=O)[C@H](Cc1ccccc1)NC(=O)[C@H](CCC(=O)O)NC(=O)[C@H](C)NC(=O)[C@H](CC(C)C)NC(=O)[C@H](CCCNC(=N)N)NC(=O)[C@H](CCC(N)=O)NC(=O)[C@@H](NC(=O)[C@H](C)NC(=O)[C@@H]1CSSC[C@H](NC(=O)[C@@H](N)CCCCNC(=O)CC[C@H](NC(=O)CC[C@H](NC(=O)CCCCCCCCCCCCCCCCCCC(=O)O)C(=O)O)C(=O)O)C(=O)N[C@@H](CC(N)=O)C(=O)N[C@@H]([C@@H](C)O)C(=O)N[C@@H](C)C(=O)N[C@@H]([C@@H](C)O)C(=O)N1)[C@@H](C)O)C(=O)N1CCC[C@H]1C(=O)N[C@@H](CO)C(=O)N[C@@H](CO)C(=O)N[C@H](C(=O)N[C@@H](CC(N)=O)C(=O)N[C@H](C(=O)NCC(=O)N[C@@H](CO)C(=O)N[C@@H](CCCNC(=N)N)C(=O)N[C@H](C(=O)N[C@@H](Cc1ccc(O)cc1)C(N)=O)[C@@H](C)O)C(C)C)[C@@H](C)O
notes: also called compound 89
B4: N^ε1-[(4S)-4-carboxy-4-[[(4S)-4-carboxy-4-(19-carboxynonadecanoylamino)butanoyl]amino]butanoyl]-[Arg17,Pro21,Pro27,Pro31,Pro34,Arg35]-h-amylin (peptide)
peptide: K([γGlu-γGlu-C20 diacid])CNTATCATQRLANFLRHSSPNFGAIPSSTPVGPRTY-NH2
modifications: disulfide 2-7; N-terminus assumed
SMILES: CC[C@H](C)[C@H](NC(=O)[C@H](C)NC(=O)CNC(=O)[C@H](Cc1ccccc1)NC(=O)[C@H](CC(N)=O)NC(=O)[C@@H]1CCCN1C(=O)[C@H](CO)NC(=O)[C@H](CO)NC(=O)[C@H](Cc1c[nH]cn1)NC(=O)[C@H](CCCNC(=N)N)NC(=O)[C@H](CC(C)C)NC(=O)[C@H](Cc1ccccc1)NC(=O)[C@H](CC(N)=O)NC(=O)[C@H](C)NC(=O)[C@H](CC(C)C)NC(=O)[C@H](CCCNC(=N)N)NC(=O)[C@H](CCC(N)=O)NC(=O)[C@@H](NC(=O)[C@H](C)NC(=O)[C@@H]1CSSC[C@H](NC(=O)[C@@H](N)CCCCNC(=O)CC[C@H](NC(=O)CC[C@H](NC(=O)CCCCCCCCCCCCCCCCCCC(=O)O)C(=O)O)C(=O)O)C(=O)N[C@@H](CC(N)=O)C(=O)N[C@@H]([C@@H](C)O)C(=O)N[C@@H](C)C(=O)N[C@@H]([C@@H](C)O)C(=O)N1)[C@@H](C)O)C(=O)N1CCC[C@H]1C(=O)N[C@@H](CO)C(=O)N[C@@H](CO)C(=O)N[C@H](C(=O)N1CCC[C@H]1C(=O)N[C@H](C(=O)NCC(=O)N1CCC[C@H]1C(=O)N[C@@H](CCCNC(=N)N)C(=O)N[C@H](C(=O)N[C@@H](Cc1ccc(O)cc1)C(N)=O)[C@@H](C)O)C(C)C)[C@@H](C)O
B5: N^ε1-[(4S)-4-carboxy-4-[[(4S)-4-carboxy-4-(19-carboxynonadecanoylamino)butanoyl]amino]butanoyl]-[Glu14,Arg17,Pro21,Pro27,Arg34]-h-amylin (peptide)
peptide: K([γGlu-γGlu-C20 diacid])CNTATCATQRLAEFLRHSSPNFGAIPSSTNVGRNTY-NH2
modifications: disulfide 2-7; N-terminus assumed
SMILES: CC[C@H](C)[C@H](NC(=O)[C@H](C)NC(=O)CNC(=O)[C@H](Cc1ccccc1)NC(=O)[C@H](CC(N)=O)NC(=O)[C@@H]1CCCN1C(=O)[C@H](CO)NC(=O)[C@H](CO)NC(=O)[C@H](Cc1c[nH]cn1)NC(=O)[C@H](CCCNC(=N)N)NC(=O)[C@H](CC(C)C)NC(=O)[C@H](Cc1ccccc1)NC(=O)[C@H](CCC(=O)O)NC(=O)[C@H](C)NC(=O)[C@H](CC(C)C)NC(=O)[C@H](CCCNC(=N)N)NC(=O)[C@H](CCC(N)=O)NC(=O)[C@@H](NC(=O)[C@H](C)NC(=O)[C@@H]1CSSC[C@H](NC(=O)[C@@H](N)CCCCNC(=O)CC[C@H](NC(=O)CC[C@H](NC(=O)CCCCCCCCCCCCCCCCCCC(=O)O)C(=O)O)C(=O)O)C(=O)N[C@@H](CC(N)=O)C(=O)N[C@@H]([C@@H](C)O)C(=O)N[C@@H](C)C(=O)N[C@@H]([C@@H](C)O)C(=O)N1)[C@@H](C)O)C(=O)N1CCC[C@H]1C(=O)N[C@@H](CO)C(=O)N[C@@H](CO)C(=O)N[C@H](C(=O)N[C@@H](CC(N)=O)C(=O)N[C@H](C(=O)NCC(=O)N[C@@H](CCCNC(=N)N)C(=O)N[C@@H](CC(N)=O)C(=O)N[C@H](C(=O)N[C@@H](Cc1ccc(O)cc1)C(N)=O)[C@@H](C)O)C(C)C)[C@@H](C)O
notes: also called compound 88
B6: N^ε1-[(4S)-4-carboxy-4-[[(4S)-4-carboxy-4-(19-carboxynonadecanoylamino)butanoyl]amino]butanoyl]-[Asp14,Arg17,Pro21,Pro27,Pro34,Glu35]-h-amylin (peptide)
peptide: K([γGlu-γGlu-C20 diacid])CNTATCATQRLADFLRHSSPNFGAIPSSTNVGPETY-NH2
modifications: disulfide 2-7; N-terminus assumed
SMILES: CC[C@H](C)[C@H](NC(=O)[C@H](C)NC(=O)CNC(=O)[C@H](Cc1ccccc1)NC(=O)[C@H](CC(N)=O)NC(=O)[C@@H]1CCCN1C(=O)[C@H](CO)NC(=O)[C@H](CO)NC(=O)[C@H](Cc1c[nH]cn1)NC(=O)[C@H](CCCNC(=N)N)NC(=O)[C@H](CC(C)C)NC(=O)[C@H](Cc1ccccc1)NC(=O)[C@H](CC(=O)O)NC(=O)[C@H](C)NC(=O)[C@H](CC(C)C)NC(=O)[C@H](CCCNC(=N)N)NC(=O)[C@H](CCC(N)=O)NC(=O)[C@@H](NC(=O)[C@H](C)NC(=O)[C@@H]1CSSC[C@H](NC(=O)[C@@H](N)CCCCNC(=O)CC[C@H](NC(=O)CC[C@H](NC(=O)CCCCCCCCCCCCCCCCCCC(=O)O)C(=O)O)C(=O)O)C(=O)N[C@@H](CC(N)=O)C(=O)N[C@@H]([C@@H](C)O)C(=O)N[C@@H](C)C(=O)N[C@@H]([C@@H](C)O)C(=O)N1)[C@@H](C)O)C(=O)N1CCC[C@H]1C(=O)N[C@@H](CO)C(=O)N[C@@H](CO)C(=O)N[C@H](C(=O)N[C@@H](CC(N)=O)C(=O)N[C@H](C(=O)NCC(=O)N1CCC[C@H]1C(=O)N[C@@H](CCC(=O)O)C(=O)N[C@H](C(=O)N[C@@H](Cc1ccc(O)cc1)C(N)=O)[C@@H](C)O)C(C)C)[C@@H](C)O

Numbered stars: 1 amine (or outer) side, 2 acyl side, 3 side chain; on linkers, the order of the positions; unused ones are H or OH. Bridge positions count the residues as written; N and C are the ends. Side chains are listed from the residue outwards. Ends that are not written are not given here. * marks the point of attachment. C20 diacid = O=C(O)CCCCCCCCCCCCCCCCCCC(=O)*; γGlu = O=C(O)[C@H](CCC(=O)[*:2])N[*:1]

In the first assay the target is T1, human calcitonin receptor. In words: ratio of IC50 at human calcitonin receptor to IC50 at human amylin receptor (SPA competition assays). The method, boiled down:
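Competition binding by SPA uses membrane preparations (35 ng/μL final) in pH 7.4 Hepes buffer with 1 mM CaCl2 and 5 mM MgCl₂. Incubation lasts 120 min at 25° C, and IC₅₀ comes from one-site fitting.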
Take B1: the “Ratio hCT/hAmylin binding” value is 60.8.
B2: the “Ratio hCT/hAmylin binding” value was found to be 29.1.
On the same count and under the same terms, the value for B3 was 28; that for B4 was 48.6.
As for B5, the “Ratio hCT/hAmylin binding” value came to 46.5.
On to B6, for which the “Ratio hCT/hAmylin binding” value is 49.8.

The target of another assay is T1, human calcitonin receptor. The assay is described as follows: SPA radioligand competition (125I-calcitonin), membranes of BHK cells with human calcitonin receptor. Summed up: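 BHK hCTR membranes 35 ng/μL + SPA beads 0.05 mg/well; buffer 50 mM Hepes pH 7.4, 1 mM CaCl2, 5 mM MgCl₂, 0.1% OA, 0.02% Tween20. 120 min, 25° C., shaking. Scintillation count; IC50 by one-site binding competition.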
For orientation: Displacement assays read how much labelled ligand stays bound in the presence of the test substance.
The term IC50 denotes the concentration that inhibits the measured activity by half. Turning to B1, the IC50 was 10.3 nM.
Regarding B2, the IC50 turned out to be 15.2 nM.
For the molecule B3, the IC50 stood at 32.5 nM.
Consider B4, for which the IC50 is 42.8 nM.
For B5, the IC50 was found to be 34.9 nM.
On to B6, for which the IC50 was found to be 8.56 nM.
